{
  "source": "paper doi:10.1101/695502",
  "about": "(bioRxiv, 2019)",
  "molecules": {"B1": {"name": "hs PCDH15 EC2-3 WT (domain or fragment, Homo sapiens)", "chain": "NSPTFKHESYYATVNELTPVGTTIFTGFSGDNGATDIDDGPNGQIEYVIQYNPDDPTSNDTFEIPLMLTGNIVLRKRLNYEDKTRYFVIIQANDRAQNLNERRTTTTTLTVDVLDGDDLGPMFLPCVLVPNTRDCRPLTYQAAIPELRTPEELNPIIVTPPIQAIDQDRNIQPPSDRPGILYSILVGTPEDYPRFFHMHPRTAELSLLEPVNRDFHQKFDLVIKAEQDNGHPLPAFAGLHIEILDENN"}},
  "key": {"[1]": {"target": "mm PCDH15 EC9-MAD12 (mammalian-expressed, glycosylated) (Mus musculus)", "test": "SEC-MALS"}, "[2]": {"target": "mm PCDH15 EC1-MAD12 CD1-1 (Mus musculus)", "test": "SEC-MALS"}, "[3]": {"target": "mm PCDH15 EC1-MAD12 CD1-1 (Mus musculus)", "test": "SEC-MALS", "remark": "listed apart in the source"}, "[4]": {"target": "bacterially produced mm PCDH15 EC9-MAD12 (Mus musculus)", "test": "SEC-SAXS"}, "[5]": {"target": "hs PCDH15 EC1-3 G16D/N369D/Q370N (Homo sapiens)"}, "[6]": {"target": "the molecule itself", "test": "AUC"}},
  "note": "Like-named read-outs stand apart in the source and are kept apart here.",
  "data": [
    {"molecule": "mm PCDH15 EC9-MAD12 (mammalian-expressed, glycosylated) (domain or fragment)", "values": [
      {"measurement": "stoichiometry N", "setting": "[1]", "result": 2}
    ]},
    {"molecule": "mm PCDH15 EC1-MAD12 CD1-1 (domain or fragment)", "values": [
      {"measurement": "stoichiometry N", "setting": "[2]", "result": 2},
      {"measurement": "stoichiometry N", "setting": "[3]", "result": 2}
    ]},
    {"molecule": "bacterially produced mm PCDH15 EC9-MAD12 (domain or fragment)", "values": [
      {"measurement": "stoichiometry N", "setting": "[4]", "result": 2}
    ]},
    {"molecule": "hs PCDH15 EC1-3 G16D/N369D/Q370N (domain or fragment)", "values": [
      {"measurement": "stoichiometry N", "setting": "[5]", "result": 2}
    ]},
    {"molecule": "B1", "values": [
      {"measurement": "Kd", "setting": "[6]", "result": "< 1000", "unit": "nM"},
      {"measurement": "stoichiometry N", "setting": "[6]", "result": 2}
    ]}
  ]
}
